According to publication PMC8221569 (Molecular Cell, 2021):
Where a chain is given by its changes, count along the chain named. In names and notes the source's numbering stands. Blank lines part the entries; values can stand above or below the binder they belong to.

Columns and labels:
Conditions in all cases: both partners purified
histone H4 (recombinant) [1] = molecular target: T1, histone H4 (recombinant) (human, UniProt P62805 2-103); assay: crystal structure; DNAJC9 αB C243S mixed 1:1 with the MCM2 HBD (61–130)–H3.3 (57–135)–H4 complex, gel filtration in 500 mM NaCl; PDB 7CIZ, 1.80 Å
[2] = molecular target: T2, MCM2 HBD (61–130)–H3.3–H4 complex ( | human, UniProt P49736 61-130; P84243 1-136; P62805 2-103); assay: pull-down; GST-tagged protein (1.5 nmol) on Glutathione Sepharose 4B, 1.5 nmol histone complex added; 20 mM Tris pH 7.5, 500 mM NaCl, 4°C, 2 hours; washes with 0.5% Triton X-100; SDS-PAGE
T2 construct: histone H3.3, human; histone H4, human; also called pre-assembled MCM2 HBD-H3.3-H4 complexes; MCM2 HBD–H3.3–H4 complex; source: purified as described previously (Huang et al., 2015); copies: + +

[3] = molecular target: T3, human histones H3.3–H4 tetramer (human, UniProt P84243 1-136; P62805 1-103); assay: ITC; MicroCal PEAQ-ITC, 20°C, 20 mM Tris-HCl pH 7.5, 500 mM NaCl; 300 μM DNAJC9 HBD in the syringe, 30 μM (dimers) H3-H4 in the cell; one set of sites model; n = 3
T3 construct: histone H3.3, human; histone H4, human; methods call it a tetramer; construct as in Huang et al., 2015; also called pre-assembled H3.3-H4; H3.3 WT-H4; source: bacteria, co-expressed and purified (as in Huang et al., 2015; Superdex 200 in 2 M NaCl); copies: 2 + 2

histone H4 (recombinant) [4] = molecular target: T1, histone H4 (recombinant); assay: crystal structure; DNAJC9 HBD C243S mixed 1:1 with the MCM2 HBD (61–130)–H3.3 (57–135)–H4 complex, gel filtration in 1 M NaCl; PDB 7CJ0, 2.50 Å

B1: DNAJC9 αB C243S (204–249), GST tag removed (domain or fragment)
chain: RKELGLDEGVDSLKAAIQSRQKDRQKEMDNFLAQMEAKYSKSSKGG
notes: crystallized construct; also called isolated DNAJC9 αB helix (C243S); source: E. coli BL21 (DE3)-RIL, purified (Glutathione Sepharose 4B, 3C protease, Superdex 200)
- binding result (histone H4 (recombinant) [1]): binds

B2: GST-DNAJC9 HBD (histone binding domain, 171–249) (domain or fragment)
chain: EVPSYNAFVKESKQKMNARKRRAQEEAKEAEMSRKELGLDEGVDSLKAAIQSRQKDRQKEMDNFLAQMEAKYCKSSKGG
notes: PDB 7CJ0 holds the same limits with C243S; also called GST-tagged DNAJC9 HBD; DNAJC9 HBD WT; source: E. coli BL21 (DE3)-RIL, purified (Glutathione Sepharose 4B, Superdex 200)
- binding result [2]: binds

B3: GST-DNAJC9 HBD F234A L235A (domain or fragment)
chain: B2 chain with F64A, L65A
notes: source: E. coli BL21 (DE3)-RIL, purified (Glutathione Sepharose 4B, Superdex 200)
- binding result [2]: binds

B4: GST-DNAJC9 HBD Q224A R227A (domain or fragment)
chain: B2 chain with Q54A, R57A
notes: as for B3
- binding result [2]: binds

B5: DNAJC9 HBD (171–249), GST tag removed (domain or fragment)
chain: B2 chain
notes: used in ITC; also called DNAJC9 HBD WT; source: E. coli BL21 (DE3)-RIL, purified (Glutathione Sepharose 4B, 3C protease, Superdex 200)
- Kd [3]: 55 nM

Other lines, results leading:

- binding result (histone H4 (recombinant) [4]): binds
B6: DNAJC9 HBD C243S (171–249), GST tag removed (domain or fragment)
chain: B2 chain with C73S
notes: crystallized construct; source: E. coli BL21 (DE3)-RIL, purified (Glutathione Sepharose 4B, 3C protease, Superdex 200)

- binding result [2]: binds
B7: GST-DNAJC9 HBD M238A Y242A (domain or fragment)
chain: B2 chain with M68A, Y72A
notes: as for B3

- binding result [2]: binds
B8: GST-DNAJC9 HBD 4A1 (E195A E196A E199A A200E) (domain or fragment)
chain: B2 chain with E25A, E26A, E29A, A30E
notes: as for B3
